According to patent US11497796B2, “Agents directed against a cis RGMa/neogenin interaction or lipid rafts and use of the same in methods of treatment” (UNIVERSITY HEALTH NETWORK, priority 2013, dated 2022):

Assays:
retinal cells = experiment: Ocular ischemia by ligation of the main optic artery, cell survival; format: in vivo, rat; details: injection into the eye after ligation
Procedure: (A,B,C) Schematic representation of the experiments performed on the eye. A) the main artery was ligated to stop blood flow for 15 min. B) RGMa was injected into the eye vitreous just after ligation. C) 2 weeks after ligation, retrograde labeling was performed to assess cell survival. D) Representation of the retinal areas used for quantification. E) Quantification of cell survival performed on 8 rats for each condition.
To extend this study, whether RGMa injection into the eye affected cell survival after ligation of the main optic artery to induce ocular ischemia was tested.

retinal whole mounts = experiment: Oxygen Glucose Deprivation (OGD) in retinal whole mounts, PI staining; format: cell-based; details: added to the medium, OGD 1 hour, 24 hours
Procedure: Specifically, retinal whole mounts were subjected to OGD for 1 hour. After ischemia, whole mounts were incubated for 24 hours and dead cells were identified using propidium iodide (PI) staining.
To determine whether Neogenin required lipid raft association to induce cell death, OGD was performed on retinal whole mounts in the presence of 4Ig, which as described above, prevented Neogenin localization into lipid rafts.

B1: RGMa: Repulsive Guidance Molecule A added to the medium or injected into the eye (protein)
chain: PHLRTFTDTFQTCKVQGAWPLIDNNYLNVQVTNTPVLPGSSATATSKLTIIFKSFQECVEQKVYQAEMDELPAAFADGSKNGGDKHGANSLKITEKVSGQHIEIQAKYIGTTIVVRQVGRYLTFAVRMPEEVVNAVEDRDSQGLYLCLRGCPLNQQIDFQTFRLAQAAEGRARRKGPSLPAPPEAFTYESATAKCREKLPVEDLYFQSCVFDLLTTGDVNFMLAAYYAFEDVKMLHSNKDKLHLYERTRALAPGN
enhancement of survival compared to controls (retinal cells): up to 2 times
cell survival after OGD (retinal whole mounts): promoted cell survival
